Measurements from paper PMC2191588.

Biological target: TCR beta proteins on normal splenic CD4+ T cells (mouse (endogenous in splenic CD4+ T cells))
Assay: flow cytometry on cells

“CD3 epsilon (from UniProt P22646 22-189) (natural protein)” gave a stoichiometry N (CD3e per TCR beta) of 2.
